Reference: paper PMC10470053, “Diverse p120RasGAP interactions with doubly phosphorylated partners EphB4, p190RhoGAP, and Dok1” (The Journal of Biological Chemistry, 2023)
“And” between values parts separate entries of the source, which are not always exact repeats. Equal values may be shown once. Square brackets hold non-standard residues; d marks the D form. pY = N[C@@H](Cc1ccc(OP(=O)(O)O)cc1)C(=O)O

T1: RasGAP^232 (p120RasGAP N-SH2, SH3 and C-SH2 domains, residues 174-444) (human, UniProt P20936 174-444, C236 | C261 | C372 | C402)
T1 construct: p120RasGAP (RASA1), human, UniProt P20936, residues 174-444 (N-SH2, SH3, C-SH2), with four cysteine to serine mutations; also called WT RasGAP^232; apo RasGAP^232; source: E. coli Rosetta (DE3), purified (Ni-NTA, TEV cleavage, anion exchange, SEC)
T1 sequence (looked up): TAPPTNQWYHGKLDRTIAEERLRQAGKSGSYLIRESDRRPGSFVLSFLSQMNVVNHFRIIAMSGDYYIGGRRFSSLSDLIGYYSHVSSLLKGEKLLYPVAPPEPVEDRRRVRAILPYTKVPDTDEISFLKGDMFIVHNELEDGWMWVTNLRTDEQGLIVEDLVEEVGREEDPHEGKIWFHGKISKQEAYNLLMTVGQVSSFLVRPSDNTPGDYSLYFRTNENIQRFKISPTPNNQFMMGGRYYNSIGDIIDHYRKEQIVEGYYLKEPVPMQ

T2: RasGAP^2(mut)32 (RasGAP^232 with R207A in the N-SH2 domain) (human, UniProt P20936 174-444, R207 to alanine | C236 | C261 | C372 | C402)
T2 construct: p120RasGAP (RASA1), human, UniProt P20936, residues 174-444, mutant of RasGAP^232 in the N-SH2 domain; also called N-SH2 mutant; source: E. coli Rosetta (DE3), purified (same protocol as the WT: Ni-NTA, TEV cleavage, anion exchange, SEC)
T2 sequence (looked up): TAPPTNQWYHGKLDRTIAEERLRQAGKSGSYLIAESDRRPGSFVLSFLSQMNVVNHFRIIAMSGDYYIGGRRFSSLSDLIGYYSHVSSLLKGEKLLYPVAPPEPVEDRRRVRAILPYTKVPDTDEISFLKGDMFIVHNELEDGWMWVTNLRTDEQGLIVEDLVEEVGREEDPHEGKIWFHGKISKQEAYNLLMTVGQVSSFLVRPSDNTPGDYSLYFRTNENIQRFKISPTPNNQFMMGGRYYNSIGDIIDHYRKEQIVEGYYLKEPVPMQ

T3: RasGAP^232(mut) (RasGAP^232 with R398E/K400E in the C-SH2 domain) (human, UniProt P20936 174-444, R398E | K400E | C236 | C261 | C372 | C402)
T3 construct: p120RasGAP (RASA1), human, UniProt P20936, residues 174-444, mutant of RasGAP^232 in the C-SH2 domain; also called C-SH2 mutant; source: E. coli Rosetta (DE3), purified (same protocol as the WT: Ni-NTA, TEV cleavage, anion exchange, SEC)
T3 sequence (looked up): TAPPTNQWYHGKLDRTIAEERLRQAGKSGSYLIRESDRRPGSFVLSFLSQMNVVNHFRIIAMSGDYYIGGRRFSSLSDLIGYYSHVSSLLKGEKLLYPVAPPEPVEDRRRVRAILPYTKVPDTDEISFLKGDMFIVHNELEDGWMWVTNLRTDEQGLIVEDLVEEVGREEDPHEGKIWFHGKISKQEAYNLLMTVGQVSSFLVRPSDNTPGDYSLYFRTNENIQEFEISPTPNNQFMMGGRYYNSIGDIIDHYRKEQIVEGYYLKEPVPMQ

T4: RasGAP^232 (p120RasGAP SH2-SH3-SH2 region, residues 174-444) (human, C236S (stands in the printed letters) | C261S (stands in the printed letters) | …)
T4 construct: p120RasGAP, human, UniProt P20936, residues 174-444 (N-SH2, SH3, C-SH2) with four cysteine to serine mutations; the methods say that the hexahistidine tag was cut off with TEV, so G-S of the printed stretch probably stay before T174; also called WT RasGAP^232; source: E. coli Rosetta (DE3), purified (Ni-NTA, TEV cleavage, anion exchange, SEC); not shown: His6, N-terminal, cleaved
T4 chain: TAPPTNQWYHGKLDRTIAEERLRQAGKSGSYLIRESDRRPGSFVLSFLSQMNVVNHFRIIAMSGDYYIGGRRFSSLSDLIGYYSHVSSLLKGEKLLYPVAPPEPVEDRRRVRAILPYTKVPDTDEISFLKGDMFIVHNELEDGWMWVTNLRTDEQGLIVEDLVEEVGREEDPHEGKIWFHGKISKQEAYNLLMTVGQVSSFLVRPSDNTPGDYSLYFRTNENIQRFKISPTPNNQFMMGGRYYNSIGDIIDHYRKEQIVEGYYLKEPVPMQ

T5: RasGAP^2(mut)32 (RasGAP^232 with R207A in the N-SH2 domain) (human, UniProt P20936 174-444, C236S | C261S | C372S | C402S | R207 to alanine)
T5 construct: p120RasGAP, human, UniProt P20936, residues 174-444; Made by site-directed mutagenesis of RasGAP^232, which holds the four cysteine to serine mutations; also called N-SH2 mutant; source: E. coli Rosetta (DE3), purified (same protocol as the WT counterpart); not shown: His6, N-terminal, cleaved
T5 sequence (looked up): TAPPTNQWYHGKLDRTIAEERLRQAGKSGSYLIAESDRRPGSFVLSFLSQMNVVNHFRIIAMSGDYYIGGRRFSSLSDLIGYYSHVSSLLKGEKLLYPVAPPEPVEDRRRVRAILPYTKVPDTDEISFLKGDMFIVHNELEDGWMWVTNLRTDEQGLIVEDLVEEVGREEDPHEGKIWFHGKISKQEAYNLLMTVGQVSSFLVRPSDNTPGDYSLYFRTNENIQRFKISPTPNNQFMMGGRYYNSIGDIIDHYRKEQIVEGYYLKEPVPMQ

T6: RasGAP^232(mut) (RasGAP^232 with R398E/K400E in the C-SH2 domain) (human, UniProt P20936 174-444, C236S | C261S | C372S | C402S | R398E | K400E)
T6 construct: p120RasGAP, human, UniProt P20936, residues 174-444; Made by site-directed mutagenesis of RasGAP^232, which holds the four cysteine to serine mutations; also called C-SH2 mutant; source: E. coli Rosetta (DE3), purified (same protocol as the WT counterpart); not shown: His6, N-terminal, cleaved
T6 sequence (looked up): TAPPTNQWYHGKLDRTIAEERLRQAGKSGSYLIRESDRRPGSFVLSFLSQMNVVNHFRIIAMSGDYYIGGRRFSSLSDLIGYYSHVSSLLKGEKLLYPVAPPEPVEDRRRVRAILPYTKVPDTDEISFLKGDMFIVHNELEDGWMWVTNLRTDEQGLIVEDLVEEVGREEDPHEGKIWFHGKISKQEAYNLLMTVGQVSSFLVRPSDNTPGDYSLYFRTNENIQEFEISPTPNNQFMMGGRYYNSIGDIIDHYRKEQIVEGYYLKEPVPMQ


Tests used:
Settings in all cases: both partners purified
[1] = molecular target: T1, RasGAP^232 (p120RasGAP N-SH2, SH3 and …); test: ITC; protein in the 190 ul sample cell, titrated 20 times with 2.5 ul peptide from the syringe; 20 mM Tris pH 8, 250 mM NaCl; Nano ITC (TA Instruments); independent binding model
[2] = molecular target: T2, RasGAP^2(mut)32 (RasGAP^232 with R207A …); test: as above
[3] = molecular target: T3, RasGAP^232(mut) (RasGAP^232 with …); test: as above
[4] = molecular target: T4, RasGAP^232 (p120RasGAP SH2-SH3-SH2 …); test: ITC; RasGAP^232 protein (WT or mutant) in the 190 µl sample cell, peptide in the syringe, 20 injections of 2.5 µl; 20 mM Tris pH 8, 250 mM NaCl; Nano ITC (TA Instruments); blank (constant) and independent models; values of single trials, averages and stdev
[5] = molecular target: T5, RasGAP^2(mut)32 (RasGAP^232 with R207A …); test: as above
[6] = molecular target: T6, RasGAP^232(mut) (RasGAP^232 with …); test: as above

Row | Kd [1] [µM] | dH [1] [kcal/mol] | stoichiometry N [1] | Kd [2] [µM] | dH [2] [kcal/mol] | stoichiometry N [2] | Kd [3] [µM] | dH [3] [kcal/mol] | stoichiometry N [3] | Ka [4] | Kd [4] | stoichiometry N [4] | Ka [5] | Kd [5] | stoichiometry N [5] | Ka [6] | Kd [6] | stoichiometry N [6] | Binder
1 | 2 ± 0.7 | -5.74 ± 0.717 | 1 ± 0.1 | 40 ± 20 | -7.89 ± 1.43 | 0.9 ± 0.2 | 1 ± 0.3 | -5.98 ± 0.239 | 0.75 ± 0.02 |  |  |  |  |  |  |  |  |  | Ac-GTKV[pY]IDPFT[pY]EDPNEA-NH2 (SMILES CC[C@H](C)[C@H](NC(=O)[C@H](Cc1ccc(OP(=O)(O)O)cc1)NC(=O)[C@@H](NC(=O)[C@H](CCCCN)NC(=O)[C@@H](NC(=O)CNC(C)=O)[C@@H](C)O)C(C)C)C(=O)N[C@@H](CC(=O)O)C(=O)N1CCC[C@H]1C(=O)N[C@@H](Cc1ccccc1)C(=O)N[C@H](C(=O)N[C@@H](Cc1ccc(OP(=O)(O)O)cc1)C(=O)N[C@@H](CCC(=O)O)C(=O)N[C@@H](CC(=O)O)C(=O)N1CCC[C@H]1C(=O)N[C@@H](CC(N)=O)C(=O)N[C@@H](CCC(=O)O)C(=O)N[C@@H](C)C(N)=O)[C@@H](C)O, EphB4 juxtamembrane region, UniProt P54760, residues 586-602; also called pYpY EphB4; pYpYEphB4; source: synthetic peptide, bought: GenScript) [doubly phosphorylated EphB4 peptide (residues 586-602, pY590 and pY596)]
2 |  |  |  |  |  |  |  |  |  | 6.3e+07 M⁻¹ and 2.1e+07 M⁻¹ and 4.3e+07 M⁻¹ and 4e+07 M⁻¹ | 0.016 µM and 0.047 µM and 0.023 µM | 0.9 and 0.8 and 0.7 |  |  |  |  |  |  | Ac-SPPAL[pY]AEPLDSLRIAPCPSQDSL[pY]SDPLDST-NH2 (SMILES CC[C@H](C)[C@H](NC(=O)[C@H](CCCNC(=N)N)NC(=O)[C@H](CC(C)C)NC(=O)[C@H](CO)NC(=O)[C@H](CC(=O)O)NC(=O)[C@H](CC(C)C)NC(=O)[C@@H]1CCCN1C(=O)[C@H](CCC(=O)O)NC(=O)[C@H](C)NC(=O)[C@H](Cc1ccc(OP(=O)(O)O)cc1)NC(=O)[C@H](CC(C)C)NC(=O)[C@H](C)NC(=O)[C@@H]1CCCN1C(=O)[C@@H]1CCCN1C(=O)[C@H](CO)NC(C)=O)C(=O)N[C@@H](C)C(=O)N1CCC[C@H]1C(=O)N[C@@H](CS)C(=O)N1CCC[C@H]1C(=O)N[C@@H](CO)C(=O)N[C@@H](CCC(N)=O)C(=O)N[C@@H](CC(=O)O)C(=O)N[C@@H](CO)C(=O)N[C@@H](CC(C)C)C(=O)N[C@@H](Cc1ccc(OP(=O)(O)O)cc1)C(=O)N[C@@H](CO)C(=O)N[C@@H](CC(=O)O)C(=O)N1CCC[C@H]1C(=O)N[C@@H](CC(C)C)C(=O)N[C@@H](CC(=O)O)C(=O)N[C@@H](CO)C(=O)N[C@H](C(N)=O)[C@@H](C)O, Dok1, UniProt Q99704, residues 291-322; also called pYpY Dok1; pYpYDok1; source: synthetic peptide, bought: GenScript) [doubly phosphorylated Dok1 peptide (residues 291-322)]
3 |  |  |  |  |  |  |  |  |  |  | 1.3 µM and 1.5 µM and 2.4 µM and 2.7 µM | 0.9 and 1 and 1.1 | 40000 M⁻¹ and 30000 M⁻¹ and 20000 M⁻¹ | 25 µM and 32 µM and 60 µM and 38 µM | 0.7 and 1 and 0.9 and 1.2 | 900000 M⁻¹ and 700000 M⁻¹ and 1e+06 M⁻¹ | 1.1 µM and 1.5 µM and 1 µM and 0.8 µM | 0.8 and 0.7 | Ac-GTKV[pY]IDPFT[pY]EDPNEA-NH2 (SMILES CC[C@H](C)[C@H](NC(=O)[C@H](Cc1ccc(OP(=O)(O)O)cc1)NC(=O)[C@@H](NC(=O)[C@H](CCCCN)NC(=O)[C@@H](NC(=O)CNC(C)=O)[C@@H](C)O)C(C)C)C(=O)N[C@@H](CC(=O)O)C(=O)N1CCC[C@H]1C(=O)N[C@@H](Cc1ccccc1)C(=O)N[C@H](C(=O)N[C@@H](Cc1ccc(OP(=O)(O)O)cc1)C(=O)N[C@@H](CCC(=O)O)C(=O)N[C@@H](CC(=O)O)C(=O)N1CCC[C@H]1C(=O)N[C@@H](CC(N)=O)C(=O)N[C@@H](CCC(=O)O)C(=O)N[C@@H](C)C(N)=O)[C@@H](C)O, EphB4, UniProt P54760, juxtamembrane residues 586-602; also called pYpY EphB4; pYpYEphB4; source: synthetic peptide, bought: GenScript) [doubly phosphorylated EphB4 peptide (residues 586-602)]
